Data as given in the supplement of paper PMC5998384.

Key:
HeLa Kyoto [1] = assay: thermal stability score vs G1/S (z-score of summed log2 fold changes over temperatures); higher = more thermally stable than in G1/S
HeLa Kyoto [2] = assay: melting temperature (median over replicates), in situ; higher = more thermally stable
HeLa Kyoto [3] = assay: solubility change mitosis vs G1/S (difference of NP-40 vs SDS log2 ratios) (log2 ratio difference); higher = more soluble in mitosis
HeLa Kyoto [4] = assay: solubility in G1/S (NP-40 vs SDS abundance) (log2 ratio); higher = more soluble; settings: cell cycle stage: G1/S
[5] = cell cycle stage: early G1 (4.5 h after nocodazole release)
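Throughout, for melting temperature (median over replicates), in situ: HeLa Kyoto cells synchronized by double thymidine or nocodazole block, proteins quantified by TMT10plex mass spectrometry, three independent biological replicates.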
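Throughout, for solubility change mitosis vs G1/S (difference of NP-40 vs SDS log2 ratios): synchronized HeLa Kyoto cells (double thymidine block for G1/S, nocodazole release for mitosis), protein amounts in NP-40 versus SDS lysates quantified by mass spectrometry, three biological replicates.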
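Throughout, for solubility in G1/S (NP-40 vs SDS abundance): HeLa Kyoto cells arrested at G1/S by double thymidine block, proteins quantified by TMT10plex mass spectrometry in mild NP-40 versus SDS extracts, three biological replicates.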
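Throughout, for thermal stability score vs G1/S (z-score of summed log2 fold changes over temperatures): synchronized HeLa Kyoto cells, proteins quantified by TMT10plex mass spectrometry, three biological replicates, mitosis taken 0.5 h after nocodazole release, G1/S directly after double thymidine block.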

Sequence: MAGPGPGAVLESPRQLLGRVRFLAEAARSLRAGRPLPAALAFVPREVLYKLYKDPAGPSRVLLPVWEAEGLGLRVGAAGPAPGTGSGPLRAARDSIELRRGACVRTTGEELCNGHGLWVKLTKEQLAEHLGDCGLQEGWLLVCRPAEGGARLVPIDTPNHLQRQQQLFGVDYRPVLRWEQVVDLTYSHRLGSRPQPAEAYAEAVQRLLYVPPTWTYECDEDLIHFLYDHLGKEDENLGSVKQYVESIDVSSYTEEFNVSCLTDSNADTYWESDGSQCQHWVRLTMKKGTIVKKLLLTVDTTDDNFMPKRVVVYGGEGDNLKKLSDVSIDETLIGDVCVLEDMTVHLPIIEIRIVECRDDGIDVRLRGVKIKSSRQRELGLNADLFQPTSLVRYPRLEGTDPEVLYRRAVLLQRFIKILDSVLHHLVPAWDHTLGTFSEIKQVKQFLLLSRQRPGLVAQCLRDSESSKPSFMPRLYINRRLAMEHRACPSRDPACKNAVFTQVYEGLKPSDKYEKPLDYRWPMRYDQWWECKFIAEGIIDQGGGFRDSLADMSEELCPSSADTPVPLPFFVRTANQGNGTGEARDMYVPNPSCRDFAKYEWIGQLMGAALRGKEFLVLALPGFVWKQLSGEEVSWSKDFPAVDSVLVKLLEVMEGMDKETFEFKFGKELTFTTVLSDQQVVELIPGGAGIVVGYGDRSRFIQLVQKARLEESKEQVAAMQAGLLKVVPQAVLDLLTWQELEKKVCGDPEVTVDALRKLTRFEDFEPSDSRVQYFWEALNNFTNEDRSRFLRFVTGRSRLPARIYIYPDKLGYETTDALPESSTCSSTLFLPHYASAKVCEEKLRYAAYNCVAIDTDMSPWEE [HECTD3]
- thermal stability score (HeLa Kyoto [1]; [5]): 0.000139
- thermal stability score (HeLa Kyoto [1]; cell cycle stage: mitosis): -0.669
- melting temperature (HeLa Kyoto [2]; cell cycle stage: G1/S): 51.8 °C
- melting temperature (HeLa Kyoto [2]; cell cycle stage: mitosis): 51 °C
- solubility change mitosis (log2) (HeLa Kyoto [3]): -0.123
- solubility in G1/S (log2) (HeLa Kyoto [4]): -0.0837

Sequence: MAGPGWGPPRLDGFILTERLGSGTYATVYKAYAKKDTREVVAIKCVAKKSLNKASVENLLTEIEILKGIRHPHIVQLKDFQWDSDNIYLIMEFCAGGDLSRFIHTRRILPEKVARVFMQQLASALQFLHERNISHLDLKPQNILLSSLEKPHLKLADFGFAQHMSPWDEKHVLRGSPLYMAPEMVCQRQYDARVDLWSMGVILYEALFGQPPFASRSFSELEEKIRSNRVIELPLRPLLSRDCRDLLQRLLERDPSRRISFQDFFAHPWVDLEHMPSGESLGRATALVVQAVKKDQEGDSAAALSLYCKALDFFVPALHYEVDAQRKEAIKAKVGQYVSRAEELKAIVSSSNQALLRQGTSARDLLREMARDKPRLLAALEVASAAMAKEEAAGGEQDALDLYQHSLGELLLLLAAEPPGRRRELLHTEVQNLMARAEYLKEQVKMRESRWEADTLDKEGLSESVRSSCTLQ [ULK3]
- thermal stability score (HeLa Kyoto [1]; [5]): -0.375
- thermal stability score (HeLa Kyoto [1]; cell cycle stage: mitosis): -0.212
- melting temperature (HeLa Kyoto [2]; cell cycle stage: G1/S): 49.9 °C
- melting temperature (HeLa Kyoto [2]; cell cycle stage: mitosis): 49.6 °C
- solubility change mitosis (log2) (HeLa Kyoto [3]): -0.125
- solubility in G1/S (log2) (HeLa Kyoto [4]): 0.0298

Sequence: MAGPRVEVDGSIMEGGGQILRVSTALSCLLGLPLRVQKIRAGRSTPGLRPQHLSGLEMIRDLCDGQLEGAEIGSTEITFTPEKIKGGIHTADTKTAGSVCLLMQVSMPCVLFAASPSELHLKGGTNAEMAPQIDYTVMVFKPIVEKFGFIFNCDIKTRGYYPKGGGEVIVRMSPVKQLNPINLTERGCVTKIYGRAFVAGVLPFKVAKDMAAAAVRCIRKEIRDLYVNIQPVQEPKDQAFGNGNGIIIIAETSTGCLFAGSSLGKRGVNADKVGIEAAEMLLANLRHGGTVDEYLQDQLIVFMALANGVSRIKTGPVTLHTQTAIHFAEQIAKAKFIVKKSEDEEDAAKDTYIIECQGIGMTNPNL [RTCA]
- thermal stability score (HeLa Kyoto [1]; [5]): -1.26
- thermal stability score (HeLa Kyoto [1]; cell cycle stage: mitosis): -1.94
- melting temperature (HeLa Kyoto [2]; cell cycle stage: G1/S): 54.4 °C
- melting temperature (HeLa Kyoto [2]; cell cycle stage: mitosis): 54.4 °C
- solubility change mitosis (log2) (HeLa Kyoto [3]): -0.173
- solubility in G1/S (log2) (HeLa Kyoto [4]): 0.177

Sequence: MAGQQFQYDDSGNTFFYFLTSFVGLIVIPATYYLWPRDQNAEQIRLKNIRKVYGRCMWYRLRLLKPQPNIIPTVKKIVLLAGWALFLFLAYKVSKTDREYQEYNPYEVLNLDPGATVAEIKKQYRLLSLKYHPDKGGDEVMFMRIAKAYAALTDEESRKNWEEFGNPDGPQATSFGIALPAWIVDQKNSILVLLVYGLAFMVILPVVVGSWWYRSIRYSGDQILIRTTQIYTYFVYKTRNMDMKRLIMVLAGASEFDPQYNKDATSRPTDNILIPQLIREIGSINLKKNEPPLTCPYSLKARVLLLSHLARMKIPETLEEDQQFMLKKCPALLQEMVNVICQLIVMARNREEREFRAPTLASLENCMKLSQMAVQGLQQFKSPLLQLPHIEEDNLRRVSNHKKYKIKTIQDLVSLKESDRHTLLHFLEDEKYEEVMAVLGSFPYVTMDIKSQVLDDEDSNNITVGSLVTVLVKLTRQTMAEVFEKEQSICAAEEQPAEDGQGETNKNRTKGGWQQKSKGPKKTAKSKKKKPLKKKPTPVLLPQSKQQKQKQANGVVGNEAAVKEDEEEVSDKGSDSEEEETNRDSQSEKDDGSDRDSDREQDEKQNKDDEAEWQELQQSIQRKERALLETKSKITHPVYSLYFPEEKQEWWWLYIADRKEQTLISMPYHVCTLKDTEEVELKFPAPGKPGNYQYTVFLRSDSYMGLDQIKPLKLEVHEAKPVPENHPQWDTAIEGDEDQEDSEGFEDSFEEEEEEEEDDD [SEC63]
- thermal stability score (HeLa Kyoto [1]; [5]): -0.144
- thermal stability score (HeLa Kyoto [1]; cell cycle stage: mitosis): -1.37
- melting temperature (HeLa Kyoto [2]; cell cycle stage: G1/S): 53 °C
- melting temperature (HeLa Kyoto [2]; cell cycle stage: mitosis): 53.1 °C
- solubility change mitosis (log2) (HeLa Kyoto [3]): -0.1
- solubility in G1/S (log2) (HeLa Kyoto [4]): -0.14

Sequence: MAGRGGAARPNGPAAGNKICQFKLVLLGESAVGKSSLVLRFVKGQFHEYQESTIGAAFLTQTVCLDDTTVKFEIWDTAGQERYHSLAPMYYRGAQAAIVVYDITNTDTFARAKNWVKELQRQASPNIVIALAGNKADLASKRAVEFQEAQAYADDNSLLFMETSAKTAMNVNEIFMAIAKKLPKNEPQNATGAPGRNRGVDLQENNPASRSQCCSN [RAB5C]
- thermal stability score (HeLa Kyoto [1]; [5]): -2.16
- thermal stability score (HeLa Kyoto [1]; cell cycle stage: mitosis): -3.11
- melting temperature (HeLa Kyoto [2]; cell cycle stage: G1/S): 58.7 °C
- melting temperature (HeLa Kyoto [2]; cell cycle stage: mitosis): 59.4 °C
- solubility change mitosis (log2) (HeLa Kyoto [3]): -0.161
- solubility in G1/S (log2) (HeLa Kyoto [4]): 0.382
